Experimental findings from the domain aggregation screens of Martell et al. (2025) are described below.

This data set can be described thus: soluble fraction after stress (log2 fold change); higher = more stays soluble; pooled small domains, quantitative proteomics. Particulars: stress: pH 4. In short, it runs like this: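 Values are on a log2 scale, where higher means more of the domain stayed soluble after pH 4 stress. They are fold changes in the soluble amount of each domain from pooled custom libraries, measured by high-throughput quantitative proteomics. The fold change is taken to reflect aggregation propensity.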

Take “HMVVTRVKAIDVVNIRKSDSETADKLGKAAVGDEFDLLEKKGNGWSKISYEGGEAYIKSEFLEPSE”: the “soluble fraction (log2)” value worked out at 0.034.
To “HMVVVMEKNASSAEIEQVQERLRQAGFKIHLSQGVERTIIGAIGDRSQVDLGFLEALPGVEKVVPIMK” belongs 0.248.
Regarding “HMVVYFGGPVMLERGIVLHTPDISTKGTINVSDDFALTAHKEILDNINKDTSSLQFKLAIGH”, the “soluble fraction (log2)” value is -0.337.
To “HMVWINIRDLSDLFSKSGKSENSKNILDLQTLKIEKLLGGGQINTPYTIKVKQATPSAIEKVKQAGGEVIL” belongs -0.00604; to “HMVWPETEAIVTEDFIGKKRSEVQQEGVIFEFFGEGDMVIDQLPRGGVTLNESGRVWIYLGEDTF”, -1.4.
To “HMVYFAKNIRHLRRLRGMSQELLAAELDITRARLGAYEESRSEPPLHLLIKISEFFKLPVDIIVKNDLTKS” belongs -0.961.
Regarding “HMVYFDDEELDRFAGRAADSYTSDETDEFRDVMLTLLPADVMPWTQSIEMRGILLPEQLRDELLML”, the “soluble fraction (log2)” value was -1.26.
To “HMVYVPTKAEVSQQFQDASKARFDERYAIVELADGRRTMAPLAFLTKADHAWLKQLASTSPLPKGK” belongs 0.0133; to “HMWAQSVSLHGLLGRQALLIVDGKPPRAVAPGQTHLGVTVLSTDEDRAVVALAGGQRLTLRVGESPVSVG”, 0.264; to “HMWMEKEELLWNDIIRGGVERGELREDTDIQEAAALFRQVFIGLAYQMSFSDGLDVGILRKRFHHIYGLLT”, -2.16.
To “HMWNKGETKIPTQAQNELIKRRQAGATWTSLSEWLKATYGIDIHRTNIQRWYDKEVYLDQEN” belongs -0.556; to “HMWNPVLVVRGDFPKDLATTLLKMIFAQKEALNPHILFQNLLRTDNITFRESYPYHSASKTMFRF”, -0.421; to “HMWPQIAGFADRFGLSDTERRIVTLMSHGRSRKIIASTLGYSQNTIRNYTRNIYAKAGVHSKQELLDLLDP”, -0.117.
To “HMWPTPRTWSALMNELNLYKENHGYANIVDIPSEKIRRMADGIIGEDMAVRYVAFLQSHASS” belongs -0.614.
“HMWQKGEPAITGLKRISKPGLRIYSKNDELPIVYGNRGIAVISTNKGVMTGIEAKRSGVGGEVLFYV”: the “soluble fraction (log2)” value amounted to 0.104.
To “HMWSAREQVVNSLREAILTSELKAGERLVLSDLSARLGVSVTPIREALQSLEREGLVQLMPHQEAVVV” belongs -0.409; to “HMWVETITTKAGITKYKFQERYTDTYSGKTKRVSVTYTSNSRQAYKLAQAELQKKIDLATNTD”, 0.112.
To “HMYAHLGKNLEVVINKALAQEDPEKKAGFAHHIAYYMKLAYSNWHKELVHDDAIRSELDTITGGELEFSN” belongs -0.0696.
To “HMYAHTPEMEAMNELGLEPPVTLDEIKKTYKTLVKKYHPDHNKEDPEAEEKLKKVNMAYTILKVAYTEFEK” belongs 0.0101; to “HMYALGIPVSQYRRTTQVLGHESSYPIAYEDEKQDDDFYLFKFPNIDEYDFKKIVILLKQNGITT”, -0.338; to “HMYDNTVTKYVNSLSVYVRKGPSTSDEIVTSLIKDTDVTVVGENGEWYKIKYKEFEGYIYKNLLSDNKT”, -0.125.
For “HMYDRIKLLKLREKRGLTQYELAEKAGISVVTLNKIETSDMAKPFASTLKKIALALGVGIEELS”, the “soluble fraction (log2)” value was found to be 0.22.
To “HMYEDGGAFLKAEREKYGLTLTDIYEHTHIPVRKLKAYEMHEEEMPDRTRALLELYFDQVAYEYES” belongs -0.339; to “HMYEDIDSAYRILEINSTVSNQEIKNAYRRMAKKYHPDKVAHLGVEHQKGAEEKFKKVQEAYILIKKRRG”, -0.146.
To “HMYEENFSKIKNDISTIFKRHKISFTNNFISHLSSVFNTDSLTNKMELEKLDSFLINNKKVTENELLKFII” belongs 0.0436; to “HMYEINEIIRERRLKKGLTQAQVAKYLGVSAPAVNKWEKGTTYPDLVLLPALARLLDTDLTTLLSF”, -1.02.
To “HMYEVVPNMRGLTYNQATAALAAAGLKVELSDSIYDEHTQPGTVLDQSPRPNTKVKPNRVVYLTVNAF” belongs -0.0904; to “HMYFDDEELDTYKGRASNAYSPDETAQFEEVMTTMRPDEVAAWLRSLQLRGINLPDELKDEAIMLVE”, -1.22.
Consider “HMYFGNSLFQARKRSGLSQEGVAEKLGVSRQTVSKWETGETVPDIYQSKKMARLYGVSLDEL”, for which the “soluble fraction (log2)” value was found to be 0.217.
To “HMYFNTADLKADSIHYGSTEQSVIKILGEPEYRETFVDNNVSYELFSYKGNLLLSFVENSLVSL” belongs -0.0269; to “HMYGTERILAQLANYGIPNKLAFQIQDFYKEETLQIVEQQPYRLVEDIQGMGFKIADQLAEELGI”, -1.35; to “HMYIDLHEIWKSLTDEEQTVVKLLETEPAHVDTLIENSQIPASRILATLTLLEVRGIVKRLPGRMFSLAD”, -0.571.
To “HMYIENIGDYLKSHDIKPSYQRIKVFEYLMQHKNHPTVDMIYKSLVDEIPTLSKTTVYNTLNLFIEKQI” belongs 0.0963; to “HMYITGAVIRKLREKNNITQLQLAERLRVSDKTISKWETGKGYPDITLLEPIAKTFSVSVTELISGDI”, -0.84; to “HMYKNLRAFRESLGMTQKDFAASLSIGLSTYNGYEVGAREPKSDFWIAVARKYGVTIDYLMGFSDDPHK”, 0.195.
To “HMYKSSRASKSEVNKFLKFIIQSLDKRGFLQPGHKRQSMIRNIENIFYRTNLSDQEIRILLGIFSTLNK” belongs -0.405; to “HMYLELVTKEGGSFDEPDYWGRRKLAYEIAGKTEGNYVVVKYTAEPATSDELDRVLNLNESVIRTKILRK”, -0.461.
On to “HMYLHSEFSPVTGQELHMKYDDSSTEEDPVMLVEGKDIQGNDFVKKIHLNDVDPENATPAEMTALRVHL”, for which the “soluble fraction (log2)” value was -0.507.
To “HMYLLPVTSTELKGNYPNPFNPETTISFDLKDAERVNLSIYNLKGQLVRTLVNSDLPIGRHRLIWDGNDS” belongs -0.609; to “HMYLPGERMRIKITALGSNPKQGVGYLPDGMMVVVDEAATLVGRFVEIEFVKFLQTNSGRMMFAKVAT”, -0.02.
To “HMYMKGKVKWFDSKKGYGFITSENGKEIFVHFSGIAAKGFKSLNEGQTVEFEVANGAKGEQAVNVTV” belongs 0.178.
To “HMYMKTITEQFGERLKKIRTQKSLSQEQLSYLADIDRSYISDVERGARNISLENIYKLASALNIPPYLVLL” belongs -0.344.
With “HMYMLYQQLADSLRDKIYEGTYTFGDKIPSERTLAATFGISHLTVRKALAILEEEGLLDRRQGNGTFVRV”, the “soluble fraction (log2)” value was -0.693.
To “HMYNIDSFMTKNYPTMERFTLSDVQKKYKTTFGLFVKQDELASMIEKTGRFNITSSKNVKYVNR” belongs 0.313; to “HMYNPAYDAEIKVILELARHGYWEEARERADELLKAAPDDTGVKRIQTWVRQQEQRMREQAIEDSIRA”, -0.206; to “HMYPEETVNKILDVSMQLFLEKGYEHTSIQDIVNHLGGLSKGAIYHHFKSKEDILDGVMNKLYQNN”, -0.941.
To “HMYPGQILEIYLDEIKRLYLNGLSSADIFAEIKEGSIPSVKKAIRSMKDGSAPVKITEAEESTRIAPS” belongs -0.785.
To “HMYPTPAAANRHFLDKWGHQEAYLGKVLNSRSRASEILNGKRPLSLSDLRTLRDNLGIPVDLLL” belongs -0.421; to “HMYQKERDKEISEIETFLKKITNANGTRAYSDESIADMSYVELLNLYEGITSKLTEEEIENI”, -0.644; to “HMYQPLYEQIKRMLTQSLIDGEWKAGEMIPSEMELAARFKVSQGTVRKAIDELVSENILMRRQGKGTFVH”, 0.22.
